According to patent US20160304570A1:
Like-named read-outs stand apart in the source and are kept apart here.

How the values were obtained:
Experiment in all cases: cell-based or functional assay
[1] = biological target: human Nav1.5 voltage-gated sodium channel (human) (UniProt Q14524)
[2] = biological target: human voltage-gated sodium channel Nav1.3 (human) (UniProt Q9NY46)
[3] = biological target: human voltage-gated sodium channel Nav1.5 (human) (UniProt Q14524)
[4] = biological target: human voltage-gated sodium channel Nav1.7 (human) (UniProt Q15858)
Chain of human voltage-gated sodium channel Nav1.7 (human) (Q15858 whole entry): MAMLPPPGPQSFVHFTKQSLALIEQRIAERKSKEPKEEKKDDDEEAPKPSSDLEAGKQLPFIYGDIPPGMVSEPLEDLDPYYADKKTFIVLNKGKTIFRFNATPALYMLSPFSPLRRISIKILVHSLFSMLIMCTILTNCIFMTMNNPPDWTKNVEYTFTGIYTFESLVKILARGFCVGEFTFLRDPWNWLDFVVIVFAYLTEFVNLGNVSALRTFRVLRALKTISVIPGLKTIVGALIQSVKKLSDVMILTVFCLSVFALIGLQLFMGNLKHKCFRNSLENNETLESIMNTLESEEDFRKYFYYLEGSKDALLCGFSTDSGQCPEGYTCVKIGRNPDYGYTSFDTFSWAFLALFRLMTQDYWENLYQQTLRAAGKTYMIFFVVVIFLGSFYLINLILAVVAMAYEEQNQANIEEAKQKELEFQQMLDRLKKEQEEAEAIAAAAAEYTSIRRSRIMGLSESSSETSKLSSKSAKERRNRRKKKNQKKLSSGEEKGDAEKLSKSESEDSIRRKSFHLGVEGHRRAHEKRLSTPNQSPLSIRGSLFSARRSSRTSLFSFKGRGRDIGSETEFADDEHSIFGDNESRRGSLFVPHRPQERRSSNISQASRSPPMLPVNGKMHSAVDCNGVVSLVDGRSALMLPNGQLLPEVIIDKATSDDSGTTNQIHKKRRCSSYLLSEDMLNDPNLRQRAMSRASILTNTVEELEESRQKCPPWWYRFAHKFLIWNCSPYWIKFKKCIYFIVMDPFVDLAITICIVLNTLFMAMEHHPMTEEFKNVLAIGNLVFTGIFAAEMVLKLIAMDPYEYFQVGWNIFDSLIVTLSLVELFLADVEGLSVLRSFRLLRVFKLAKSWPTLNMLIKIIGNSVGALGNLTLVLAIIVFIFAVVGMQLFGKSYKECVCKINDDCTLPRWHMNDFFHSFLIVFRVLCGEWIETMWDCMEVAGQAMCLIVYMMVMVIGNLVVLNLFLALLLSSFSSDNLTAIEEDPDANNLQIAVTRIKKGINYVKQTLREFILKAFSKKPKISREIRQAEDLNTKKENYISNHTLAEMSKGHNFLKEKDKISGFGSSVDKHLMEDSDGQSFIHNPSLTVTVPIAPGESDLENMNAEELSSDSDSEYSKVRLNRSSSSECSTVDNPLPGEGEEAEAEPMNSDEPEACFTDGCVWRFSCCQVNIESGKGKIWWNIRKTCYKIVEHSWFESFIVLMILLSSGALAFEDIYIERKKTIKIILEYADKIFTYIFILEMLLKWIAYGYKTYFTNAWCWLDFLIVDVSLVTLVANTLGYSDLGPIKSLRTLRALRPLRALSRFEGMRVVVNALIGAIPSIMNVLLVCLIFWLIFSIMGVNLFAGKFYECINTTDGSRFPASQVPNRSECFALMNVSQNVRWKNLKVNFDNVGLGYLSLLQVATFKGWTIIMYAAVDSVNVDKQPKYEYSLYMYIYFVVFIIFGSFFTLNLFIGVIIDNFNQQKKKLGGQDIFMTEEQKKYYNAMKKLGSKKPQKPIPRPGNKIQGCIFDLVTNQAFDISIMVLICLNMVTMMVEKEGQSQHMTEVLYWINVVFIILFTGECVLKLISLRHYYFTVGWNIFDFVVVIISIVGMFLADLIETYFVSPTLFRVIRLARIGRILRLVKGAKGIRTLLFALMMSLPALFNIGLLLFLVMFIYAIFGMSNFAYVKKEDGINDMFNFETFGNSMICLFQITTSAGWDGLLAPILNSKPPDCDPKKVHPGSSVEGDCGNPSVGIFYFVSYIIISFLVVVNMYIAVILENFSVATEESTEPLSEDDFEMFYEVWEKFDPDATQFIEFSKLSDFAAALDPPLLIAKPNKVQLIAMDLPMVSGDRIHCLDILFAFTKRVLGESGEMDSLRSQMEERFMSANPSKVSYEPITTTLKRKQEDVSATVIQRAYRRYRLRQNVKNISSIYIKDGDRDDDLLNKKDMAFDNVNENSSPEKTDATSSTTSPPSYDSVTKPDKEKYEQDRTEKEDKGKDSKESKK

[5] = biological target: human voltage-gated sodium channel Nav1.3 (human) (UniProt Q9NY46); remark: listed apart in the source
[6] = biological target: human voltage-gated sodium channel Nav1.3 (human) (UniProt Q9NY46); remark: listed apart in the source
[7] = biological target: human voltage-gated sodium channel Nav1.5 (human) (UniProt Q14524); remark: listed apart in the source
[8] = biological target: human voltage-gated sodium channel Nav1.7 (human) (UniProt Q15858); remark: listed apart in the source
[9] = biological target: human voltage-gated sodium channel Nav1.3 (human) (UniProt Q9NY46); remark: listed apart in the source
[10] = biological target: human voltage-gated sodium channel Nav1.5 (human) (UniProt Q14524); remark: listed apart in the source
[11] = biological target: human voltage-gated sodium channel Nav1.7 (human) (UniProt Q15858); remark: listed apart in the source
[12] = biological target: human voltage-gated sodium channel Nav1.3 (human) (UniProt Q9NY46); remark: listed apart in the source
[13] = biological target: human voltage-gated sodium channel Nav1.5 (human) (UniProt Q14524); remark: listed apart in the source
[14] = biological target: human voltage-gated sodium channel Nav1.7 (human) (UniProt Q15858); remark: listed apart in the source
[15] = biological target: human voltage-gated sodium channel Nav1.3 (human) (UniProt Q9NY46); remark: listed apart in the source
[16] = biological target: human voltage-gated sodium channel Nav1.5 (human) (UniProt Q14524); remark: listed apart in the source
[17] = biological target: human voltage-gated sodium channel Nav1.7 (human) (UniProt Q15858); remark: listed apart in the source
[18] = biological target: human Nav1.3 voltage-gated sodium channel (human) (UniProt Q9NY46)
[19] = biological target: human Nav1.5 voltage-gated sodium channel (human) (UniProt Q14524); remark: listed apart in the source
[20] = biological target: human Nav1.7 voltage-gated sodium channel (human) (UniProt Q15858)
Chain of human Nav1.7 voltage-gated sodium channel (human) (Q15858 whole entry): as above

[21] = biological target: human ERG (hERG) potassium channel (human) (UniProt Q12809)
human Nav1.3 (human) = human Nav1.3 (human) (UniProt Q9NY46)
[22] = biological target: human Nav1.3 voltage-gated sodium channel (human) (UniProt Q9NY46); remark: listed apart in the source
human Nav1.5 (human) = human Nav1.5 (human) (UniProt Q14524)
human Nav1.7 (human) = human Nav1.7 (human) (UniProt Q15858)
Chain of human Nav1.7 (human) (Q15858 whole entry): as above

[23] = biological target: human Nav1.7 voltage-gated sodium channel (human) (UniProt Q15858); remark: listed apart in the source
[24] = biological target: human voltage-gated sodium channel Nav1.3 (human) (UniProt Q9NY46); remark: listed apart in the source
[25] = biological target: human voltage-gated sodium channel Nav1.5 (human) (UniProt Q14524); remark: listed apart in the source
[26] = biological target: human voltage-gated sodium channel Nav1.7 (human) (UniProt Q15858); remark: listed apart in the source
[27] = biological target: human Nav1.4 voltage-gated sodium channel (human) (UniProt P35499)
[28] = biological target: human voltage-gated sodium channel Nav1.4 (human) (UniProt P35499)

Chain of human Nav1.5 voltage-gated sodium channel (human) (Q14524 whole entry): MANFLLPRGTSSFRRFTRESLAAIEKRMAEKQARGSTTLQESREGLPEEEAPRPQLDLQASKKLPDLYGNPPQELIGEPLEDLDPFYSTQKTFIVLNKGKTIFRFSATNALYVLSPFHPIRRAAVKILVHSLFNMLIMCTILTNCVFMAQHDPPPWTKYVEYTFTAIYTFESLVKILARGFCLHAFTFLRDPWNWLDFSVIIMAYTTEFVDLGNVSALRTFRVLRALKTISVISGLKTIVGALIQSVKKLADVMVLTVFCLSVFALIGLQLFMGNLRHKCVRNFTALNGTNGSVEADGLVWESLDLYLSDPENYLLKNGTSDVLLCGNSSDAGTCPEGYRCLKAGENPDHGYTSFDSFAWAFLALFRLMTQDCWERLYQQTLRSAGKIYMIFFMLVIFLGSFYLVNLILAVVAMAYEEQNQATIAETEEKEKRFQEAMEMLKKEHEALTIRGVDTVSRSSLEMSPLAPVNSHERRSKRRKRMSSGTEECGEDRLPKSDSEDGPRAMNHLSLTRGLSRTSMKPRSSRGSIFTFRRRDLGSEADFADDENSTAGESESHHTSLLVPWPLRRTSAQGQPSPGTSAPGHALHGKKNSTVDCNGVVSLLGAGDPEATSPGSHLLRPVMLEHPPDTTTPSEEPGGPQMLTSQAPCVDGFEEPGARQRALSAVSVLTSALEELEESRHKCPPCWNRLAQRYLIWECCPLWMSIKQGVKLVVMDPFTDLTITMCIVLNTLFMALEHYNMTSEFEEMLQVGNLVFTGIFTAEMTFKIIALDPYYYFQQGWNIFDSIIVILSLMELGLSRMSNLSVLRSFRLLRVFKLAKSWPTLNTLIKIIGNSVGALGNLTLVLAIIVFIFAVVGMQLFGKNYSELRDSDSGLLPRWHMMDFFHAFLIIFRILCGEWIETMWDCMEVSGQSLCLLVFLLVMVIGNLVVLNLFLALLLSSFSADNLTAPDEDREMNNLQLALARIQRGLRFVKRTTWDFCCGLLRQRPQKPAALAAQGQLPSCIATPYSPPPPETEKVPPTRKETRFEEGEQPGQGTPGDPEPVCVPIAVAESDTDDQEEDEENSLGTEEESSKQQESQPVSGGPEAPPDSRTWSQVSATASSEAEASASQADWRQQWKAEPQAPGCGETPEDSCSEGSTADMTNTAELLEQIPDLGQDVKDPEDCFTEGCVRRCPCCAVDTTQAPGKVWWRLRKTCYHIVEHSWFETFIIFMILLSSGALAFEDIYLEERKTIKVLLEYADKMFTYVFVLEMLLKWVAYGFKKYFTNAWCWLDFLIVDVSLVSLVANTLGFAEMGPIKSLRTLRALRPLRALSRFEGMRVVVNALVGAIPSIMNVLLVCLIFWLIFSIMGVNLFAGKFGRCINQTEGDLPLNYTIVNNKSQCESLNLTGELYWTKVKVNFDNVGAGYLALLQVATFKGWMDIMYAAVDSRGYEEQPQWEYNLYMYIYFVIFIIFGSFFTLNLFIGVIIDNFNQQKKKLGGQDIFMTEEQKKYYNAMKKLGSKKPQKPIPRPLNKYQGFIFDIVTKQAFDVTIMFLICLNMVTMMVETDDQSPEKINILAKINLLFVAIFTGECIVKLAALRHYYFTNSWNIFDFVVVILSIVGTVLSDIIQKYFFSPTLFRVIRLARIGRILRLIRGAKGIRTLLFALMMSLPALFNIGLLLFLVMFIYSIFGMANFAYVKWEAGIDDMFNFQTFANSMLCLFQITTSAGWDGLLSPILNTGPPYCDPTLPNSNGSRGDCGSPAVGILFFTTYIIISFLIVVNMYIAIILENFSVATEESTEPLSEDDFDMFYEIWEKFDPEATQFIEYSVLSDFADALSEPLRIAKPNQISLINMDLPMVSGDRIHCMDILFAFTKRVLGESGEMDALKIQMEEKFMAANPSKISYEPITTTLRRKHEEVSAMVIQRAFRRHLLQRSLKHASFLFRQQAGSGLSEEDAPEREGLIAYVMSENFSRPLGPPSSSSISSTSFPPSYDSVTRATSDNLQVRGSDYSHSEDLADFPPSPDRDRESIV

Substance: Ac-GpTx-1(1-34) (peptide)
- Nav1.5 Use IC50 (µM), PatchXpress electrophysiology [1]: > 10 µM

Substance: GpTx-1(1-34) (peptide)
- IWQ Use Nav1.3 [2]: 0.08 µM
- IWQ Use Nav1.5 [3]: 13.1 µM
- IWQ Use Nav1.7 [4]: 0.08 µM
- IWQ Use Nav1.3 [5]: 0.08 µM
- IWQ Use Nav1.3 [6]: 0.08 µM
- IWQ Use Nav1.5 [7]: 13.1 µM
- IWQ Use Nav1.7 [8]: 0.08 µM
- IWQ Use Nav1.3 (µM) (IC50, IonWorks Quattro population patch clamp) [9]: 0.08 µM
- IWQ Use Nav1.5 (µM) (IC50, IonWorks Quattro population patch clamp) [10]: 13.1 µM
- IWQ Use Nav1.7 (µM) (IC50, IonWorks Quattro population patch clamp) [11]: 0.08 µM
- IWQ Use Nav1.3 (µM); IC50 of peak inward current, IonWorks Quattro [12]: 0.08 µM
- IWQ Use Nav1.5 (µM); IC50 of peak inward current, IonWorks Quattro [13]: 13.1 µM
- IWQ Use Nav1.7 (µM); IC50 of peak inward current, IonWorks Quattro [14]: 0.08 µM
- IWQ Use Nav1.3 [15]: 0.08 µM
- IWQ Use Nav1.5 [16]: 13.1 µM
- IWQ Use Nav1.7 [17]: 0.08 µM
- IWQ Use Nav1.3 [18]: 0.08 µM
- IWQ Use Nav1.5 [19]: 13.1 µM
- IWQ Use Nav1.7 [20]: 0.08 µM
- IC50, hERG current, PatchXpress counterscreen [21]: > 10000 nM
- IWQ Use Nav1.3 (µM) [IC50, IonWorks Quattro electrophysiology] (human Nav1.3 (human)): 0.08 µM
- IC50, peak inward hNav1.3 current, whole cell patch clamp, cells held at -140 mV [22]: 16.8 nM
- IWQ Use Nav1.3 [22]: 0.08 µM
- IWQ Use Nav1.3 (µM): IC50 of peak inward current block, IonWorks Quattro [22]: 0.08 µM
- IWQ Use Nav1.3 (µM); IC50 of peak inward current, IonWorks Quattro [22]: 0.08 µM
- IWQ Use Nav1.5 (µM) [IC50, IonWorks Quattro electrophysiology] (human Nav1.5 (human)): 13.1 µM
- IC50, hNav1.5 current, PatchXpress counterscreen [1]: 9800 nM
- IC50, peak inward hNav1.5 current, whole cell patch clamp, cells held at -140 mV [1]: 8900 nM
- IWQ Use Nav1.5 [1]: 13.1 µM
- IWQ Use Nav1.5 (µM): IC50 of peak inward current block, IonWorks Quattro [1]: 13.1 µM
- IWQ Use Nav1.5 (µM); IC50 of peak inward current, IonWorks Quattro [1]: 13.1 µM
- IWQ Use Nav1.7 (µM) [IC50, IonWorks Quattro electrophysiology] (human Nav1.7 (human)): 0.08 µM
- IC50, peak inward hNav1.7 current, whole cell patch clamp, cells held at -140 mV [23]: 7.4 nM
- IWQ Use Nav1.7 [23]: 0.08 µM
- IWQ Use Nav1.7 (µM): IC50 of peak inward current block, IonWorks Quattro [23]: 0.08 µM
- IWQ Use Nav1.7 (µM); IC50 of peak inward current, IonWorks Quattro [23]: 0.08 µM
- inhibition of NaV1.7 activity, IonWorks Quattro, venom sub-fraction 11 [23]: > 90%
- IWQ Use Nav1.3 [24]: 0.08 µM
- IWQ Use Nav1.3 (µM) (IC50, IonWorks Quattro population patch clamp) [24]: 0.08 µM
- IWQ Use Nav1.3 (µM): IC50 of peak inward current, IonWorks Quattro [24]: 0.08 µM
- IWQ Use Nav1.3 (µM); IC50 of peak inward current, IonWorks Quattro [24]: 0.08 µM
- Nav1.3 Use IC50 (PatchXpress whole cell patch clamp) [24]: 10 nM
- IWQ Use Nav1.5 [25]: 13.1 µM
- IWQ Use Nav1.5 (µM) (IC50, IonWorks Quattro population patch clamp) [25]: 13.1 µM
- IWQ Use Nav1.5 (µM): IC50 of peak inward current, IonWorks Quattro [25]: 13.1 µM
- IWQ Use Nav1.5 (µM); IC50 of peak inward current, IonWorks Quattro [25]: 13.1 µM
- Nav1.5 Use IC50 (PatchXpress whole cell patch clamp) [25]: > 10000 nM
- IWQ Use Nav1.7 [26]: 0.08 µM
- IWQ Use Nav1.7 (µM) (IC50, IonWorks Quattro population patch clamp) [26]: 0.08 µM
- IWQ Use Nav1.7 (µM): IC50 of peak inward current, IonWorks Quattro [26]: 0.08 µM
- IWQ Use Nav1.7 (µM); IC50 of peak inward current, IonWorks Quattro [26]: 0.08 µM
- Nav1.7 Use IC50 (PatchXpress whole cell patch clamp) [26]: 5 nM
- Nav1.7 Use IC50 (µM); PatchXpress whole cell patch clamp electrophysiology [26]: 0.005 µM

Substance: GpTx-1(1-34)-FreeAcid (peptide)
- IWQ Use Nav1.3 (µM) (IC50, IonWorks Quattro population patch clamp) [24]: 0.54 µM
- IWQ Use Nav1.5 (µM) (IC50, IonWorks Quattro population patch clamp) [25]: 9.44 µM

Substance: GpTx-2 (peptide)
- IWQ Use Nav1.3 [18]: 1.15 µM
- IWQ Use Nav1.5 [19]: 7.21 µM
- IWQ Use Nav1.7 [20]: 4.34 µM

Substance: GpTx-3 (peptide)
- IWQ Use Nav1.3 [18]: 9.37 µM
- IWQ Use Nav1.4 [27]: 20 µM
- IWQ Use Nav1.5 [19]: 7.8 µM
- IWQ Use Nav1.7 [20]: 8.93 µM

Substance: GpTx-4 (peptide)
- IWQ Use Nav1.3 [18]: 4.92 µM
- IWQ Use Nav1.4 [27]: 11 µM
- IWQ Use Nav1.5 [19]: 10.4 µM
- IWQ Use Nav1.7 [20]: 9.25 µM

Substance: GpTx-6(1-34) (peptide)
- IWQ Use Nav1.3 [18]: 0.54 µM
- IWQ Use Nav1.4 [27]: 4.1 µM
- IWQ Use Nav1.5 [19]: 7.3 µM
- IWQ Use Nav1.7 [20]: 1.3 µM

Substance: GpTx-6(1-35) (peptide)
- IWQ Use Nav1.3 [18]: 1.7 µM
- IWQ Use Nav1.4 [27]: 17.4 µM
- IWQ Use Nav1.5 [19]: 14.6 µM
- IWQ Use Nav1.7 [20]: 9.6 µM

Substance: Huwentoxin-I (peptide)
- Nav1.3 Use IC50 (PatchXpress whole cell patch clamp) [24]: 905 nM
- Nav1.4 Use IC50 (PatchXpress whole cell patch clamp) [28]: 24900 nM
- Nav1.5 Use IC50 (PatchXpress whole cell patch clamp) [25]: > 30000 nM

Substance: Huwentoxin-IV (peptide)
- Nav1.3 Use IC50 (PatchXpress whole cell patch clamp) [24]: 22 nM
- Nav1.4 Use IC50 (PatchXpress whole cell patch clamp) [28]: 4500 nM
- Nav1.7 Use IC50 (PatchXpress whole cell patch clamp) [26]: 32 nM

Substance: ProTxII (peptide)
- Nav1.3 Use IC50 (PatchXpress whole cell patch clamp) [24]: 15 nM
- Nav1.4 Use IC50 (PatchXpress whole cell patch clamp) [28]: 32 nM
- Nav1.5 Use IC50 (PatchXpress whole cell patch clamp) [25]: 104 nM
- Nav1.7 Use IC50 (PatchXpress whole cell patch clamp) [26]: 2 nM

Substance: [Ala5;Phe6;Leu26;Arg28]GpTx-1(1-34) (peptide)
- IWQ Use Nav1.3 (µM); IC50 of peak inward current, IonWorks Quattro [18]: 0.04 µM
- IWQ Use Nav1.4 (µM); IC50 of peak inward current, IonWorks Quattro [27]: 5 µM
- IWQ Use Nav1.5 (µM); IC50 of peak inward current, IonWorks Quattro [19]: 5 µM
- IWQ Use Nav1.7 (µM); IC50 of peak inward current, IonWorks Quattro [20]: 0.05 µM
- Nav1.3 Use IC50 (PatchXpress electrophysiology) [24]: 0.008 µM
- Nav1.5 Use IC50 (PatchXpress electrophysiology) [25]: > 10 µM
- Nav1.7 Use IC50 (PatchXpress electrophysiology) [26]: 0.002 µM

Substance: [D-Phe5]GpTx-1(1-34) (peptide)
- IWQ Use Nav1.7 (µM): IC50 of peak inward current, IonWorks Quattro [23]: 1.23 µM

Substance: [D-Phe34]GpTx-1(1-34) (peptide)
- IWQ Use Nav1.3 [15]: 0.52 µM
- IWQ Use Nav1.5 [16]: 20.7 µM
- IWQ Use Nav1.7 [17]: 0.98 µM
